Source: the nanobody polyreactivity screen of Harvey et al. (2022)

Assay: yeast display, Sf9 membrane polyspecificity reagent, FACS + sequencing; frameworks hold sequencing errors
How it was run: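 Nanobodies came from a synthetic yeast display library in Saccharomyces cerevisiae BJ5465, induced with galactose for 36–48 hours and stained for 1 hour at 4 °C with 10% biotinylated, detergent-solubilized Sf9 membrane reagent. Cells were enriched on streptavidin microbeads and then FACS-sorted, with low and high (top ~1%) gates set on anti-HA fluorescence for expression and streptavidin fluorescence for reagent binding. Each polyreactivity label reflects the gate a clone came from. Genes were amplified by colony PCR, sequenced by MiSeq 2 × 250 and filtered by CDR length.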

Row | Sequence | polyreactivity (PSR sort gate)
1 | HVQLVESGGGLVQAGGSLRLSCAASGFIFRKYAMGWYRQAPGKERELVAAISGRADSTYYADSVKGRFTISRDNAKNTVYLEMISLKPEDTAVYYCAADWLSKIGKGYDYWGQGTQVTVSS | high polyreactivity
2 | HVQLVESGGGLVQAGGSLRLSCAASGFSFDPYAMGWYRQAPGKERELVAAISDGGSTNYPDSVKGRFTISRDNAKNTVYLQRNSLKPEDTAVYYCAVEYWYVRGTFDDWGQGTQVTVSS | low polyreactivity
3 | HVQLVESGGGLVQAGGSLRLSCAASGFTFRLYAMGWYRQAPGKERELVAAINWGGGSTRYADSVKGRFTISRDNAKNTVYLQMNSLKPEDTAVYYCAARRFAYYFQYLGGGYWGQGTQVTVSS | high polyreactivity
4 | HVQLVESGGGLVQAGGSLRLSCAASGLIFDWYAMGWYRQAPGKERELVADISYSGGSTNYADSVKGRFTISRDNAKNTVYLQMNSLKPEDTAVYYCAVDYYYPTLTIGYYYWGQGTQVTVSS | low polyreactivity
5 | HVQLVESGGGLVQAGGSLRLSCAASGRIFAPYDMGWYRPAPGNERELVAAISRSGGSTYYADSVKGRFTSSRDNAKNTVYLQMNSLKPEDTAVYYCAASYPGRYWLYRYEYWGQGTQVTVSS | high polyreactivity
6 | HVQLVESGGGLVQAGGSLRLSCAASGRIFFRYAMGWYRQAPGKERELVAAISYSGGSTYYADSVKGRFTISRDNAKNTVYLQMNSLKPEDTAVYYCAAPLLRDLRSPYSYNYWGQGTQVTVSS | low polyreactivity
7 | HVQLVESGGGLVQAGGSLRLSCAASGRIFGVYVMGWYRPAPGKERELVAGISPSGGSTYYADSVKGRFTISRDNAKNTVYLQMNSLKPEDTAVYYCAAVLRIRRPRYGYWGQGTQVTVSS | high polyreactivity
8 | HVQLVESGGGLVQAGGSLRLSCAASGRIFNDYSMGWYRQAPGKERELVAAIRRRGDRTYYADSVKGRFTISRDNAKNTVYLQMNSLKPEDTAVYYCAKSQSAKGGYDYWGQGTQVTVSS | high polyreactivity
9 | HVQLVESGGGLVQAGGSLRLSCAASGRIFWRYAMGWYRQAPGKEREFVADITYSGGSTYYADSVKGRFTISRDNAKNTVYLQMNSLKPEDTAVYYCAAGWVRPWATYKLDYWGQGTQVTVSS | high polyreactivity
10 | HVQLVESGGGLVQAGGSLRLSCAASGRTLGSYAIGWYRQAPGKARELVAAISGGSTNYADSVKGRFTISRDNAKNTVYLQMNRLKPEDTAVYYCAADPYGYLYDSWGQGTQVTVSS | low polyreactivity
11 | HVQLVESGGGLVQAGGSLRLSCAASGSIFEYYAMGWYRQAPGKERELVASISRGTSTNYADSVKGRFTISRDNAKNTVYLQMNSLKPEDTAVYYCNADGWTVVLDTYGSWGQGTQVTVSS | low polyreactivity
12 | HVQLVESGGGLVQAGGSLRLSCAASGSIFLHNTMGWYRQAPGKERELVAVISKRGGSTYYADSVKGRFTISRDNAKNTVYLQMNCLKPEDTAVYYCNKTRSAGHPGVDGSPYYYWGQGTQVTVSS | high polyreactivity
13 | HVQLVESGGGLVQAGGSLRLSCAASGSISHLYTMRWYRQAPGKERELVAAIRYSGGRTDYADSVKGRFTISRDNAKNTVYLQMNSLKPEDTAVYYCAATQLRRWYYHYGLDYWGQGTQVTVSS | high polyreactivity
14 | HVQLVESGGGLVQAGGSLRLSCAASGSTFGENAMGWYRQAPGKERELVAAITWGTNTYYADSVKGRFTISRDNAKNTVYLQMNSLKPEDTAVYYCAAQFQTRGWRYVYWGQGTQVSVSS | low polyreactivity
15 | HVQLVESGGGLVQAGGSLRLSCAASGSTFTLNVMGWYRQAPGKERELVAGISKRGGNTYYADSVKGRFTISRDNAKNTVYLQMNSLKPEDTAVYYCATYSRIFKWEYYYWGQGTQVTVSS | high polyreactivity
16 | HVQLVESGGGLVQAGGSLRLSCAASGSTFTRYVMGWYRQAPGKERELVAAISSGVSTYYADSVKGRFTISRDNAKNSVYLQMNSLKPEDTAVYYCDANRYRAREYKYWGQGTQVTVSS | high polyreactivity
17 | HVQLVESGGGLVQAGGSLRLSFAASGRIFTHNAMGLYRKAPGKERELVAAITSGGRTTYADSVKGRFTISRDNAKNTVYLQMNSLKPEDTAVYYCNADTGLGSLDFDKRDYWGQGTQVTVSS | low polyreactivity
18 | HVQLVESGGGLVQARGSLRLSCAASGSTFYAYDRGWYRQAPGKERELVAAISSTGGRTDYADSVKGRFTISRDNSKNTVYLQMNSLKPEDTAVYYCAARQLSSHYDYWGQGTQGTVSS | low polyreactivity
19 | HVQLVESGRGLFQAGGSLRLSCAASGFIFQYYAMGWYRQAPGKERELVAAISFGGSTYYADSVKGRFTISRDNAKNTVYLQMNSLKPEDTAVYYCAGDYYSWYGYDYWGQCTQVTVSS | low polyreactivity
20 | HVQLVESVGGLVQAGGSLRLSCAASGSTFFYNAMAWYRQAPGKERELVAAITVTGNSTYYADSVKGRFTISRDNAKNTVYLQMNSLKPEDTAVYYCNTSLKRRRLRFNYWGQGTQVTVSS | low polyreactivity
21 | HVQLVETGGGLVQAGGSLRLSCAASGRTFDSYTMGWYRQAPGKERELVADITFTGGSTYYADSVKGRFTISRDNAKNTVYLQMNSLKPEATAVYYCNADREYKWYFRYDYWGQGTQVTVSS | low polyreactivity
22 | HVQLVQSGGGLVQAGGSLRLSCAASVYTFVYYAIGWYRQATGKERELVAAITSRAGRTYYADSVKGRFTISRDNAKNTVYLQMNSLKPEDTAVYYCNAASTKITRFDYWGQGTQVTVSS | high polyreactivity
23 | IILPGGRILLSCAASGRTFSGYGLGWYRQAPVKERELIADITSGGSTYYADSVKGRFTISRDNAKNTVYLQMNILIPVDTAVYYCAAERQIRSFWSSRTYEFGYWGQGTQVNVSS | low polyreactivity
24 | KGQLVESGGGLVQAGGSLRLSCAASGSIFGENAMGWYRQAPGKERELVAAITSSGSTYYADSVKGRFTISRANAKNTVYLQMNSLKPEDTAVYYCAKVSVLRMDYWGQGTQVTVSS | low polyreactivity
25 | KLQLVESGGGLVQAGGSLRLSCADSGRIFQGNAMGWYRQAPGKERELVAAITYSGRSTFYADSVKGRFTISRDNAKNTVYLQMNRLKPEDTAFYYCAARQYWTTDLPFQRYYYWGQGTQVTVSS | low polyreactivity
26 | KVLLVESGGGLVQAGGSLRLSCAASGSIFHGNAMGWYRQAPGKERELVATISSGGSTYYADSVKGLFTISRDNAKNTVDLQMNSLKPEDTAVYYCAAERFWPYKSYYWGQGTQVTVSS | low polyreactivity
27 | KVQIVESGGGLVQAGGSLRLSCAASGRTFVVNGMGRYRQAPGKDRELVAAINTSGGSTHYADSVKGRITISRDNAKNTVYLQMNILKPEDTAVYYCAAVGYWRDYSGYWDYYYIYDYWGQGTQVNVSS | low polyreactivity
28 | KVQLEESGGGLVQSGGILRLSCAASGSTLWSNTMGWYRQEQGKERELVDAISSGGGSTYADSVKGRFTISRDNAKNTVYLQMNSLKPEDTAVFYCAASAYYYRHSSWHRSDYWGQGTQVTVSS | high polyreactivity
29 | KVQLVESGGGLVQAGGSLLLSCAASVSNYTLNAMGWYRQAPGKERVLVAAISLSGGSTYYADSVKGRFTISRDNAKNTVYLQMNSLKPEDTAVYYCNTPPSRYVRYGIYRYDYWGQGTQVTVSS | high polyreactivity
30 | KVQLVESGGGLVQAGGSLRISCAASGGIFAYNAMGWYRQAPGKEMELVASITSGGNTYYADSVKGRFTISRDNAKNTFYLQMNSLKPEDTAVYYCNARFYRSWRRYSREPGYNYWGQGTQVTVSS | high polyreactivity
